According to the supplement of paper PMC10065799, “High-throughput profiling of sequence recognition by tyrosine kinases and SH2 domains using bacterial peptide display” (eLife, 2023):

Key:
[1] = tested on: Fer (mouse); test: phosphorylation enrichment, bacterial display (enrichment ratio); higher = better substrate or ligand; peptides without Tyr show the background
[2] = tested on: AncSZ; test: as above
[3] = molecular target: Hck (UniProt P08631); test: as above
[4] = molecular target: EPHB1 (UniProt P54762); test: as above
EPHB1, sequence (P54762 whole entry, looked up): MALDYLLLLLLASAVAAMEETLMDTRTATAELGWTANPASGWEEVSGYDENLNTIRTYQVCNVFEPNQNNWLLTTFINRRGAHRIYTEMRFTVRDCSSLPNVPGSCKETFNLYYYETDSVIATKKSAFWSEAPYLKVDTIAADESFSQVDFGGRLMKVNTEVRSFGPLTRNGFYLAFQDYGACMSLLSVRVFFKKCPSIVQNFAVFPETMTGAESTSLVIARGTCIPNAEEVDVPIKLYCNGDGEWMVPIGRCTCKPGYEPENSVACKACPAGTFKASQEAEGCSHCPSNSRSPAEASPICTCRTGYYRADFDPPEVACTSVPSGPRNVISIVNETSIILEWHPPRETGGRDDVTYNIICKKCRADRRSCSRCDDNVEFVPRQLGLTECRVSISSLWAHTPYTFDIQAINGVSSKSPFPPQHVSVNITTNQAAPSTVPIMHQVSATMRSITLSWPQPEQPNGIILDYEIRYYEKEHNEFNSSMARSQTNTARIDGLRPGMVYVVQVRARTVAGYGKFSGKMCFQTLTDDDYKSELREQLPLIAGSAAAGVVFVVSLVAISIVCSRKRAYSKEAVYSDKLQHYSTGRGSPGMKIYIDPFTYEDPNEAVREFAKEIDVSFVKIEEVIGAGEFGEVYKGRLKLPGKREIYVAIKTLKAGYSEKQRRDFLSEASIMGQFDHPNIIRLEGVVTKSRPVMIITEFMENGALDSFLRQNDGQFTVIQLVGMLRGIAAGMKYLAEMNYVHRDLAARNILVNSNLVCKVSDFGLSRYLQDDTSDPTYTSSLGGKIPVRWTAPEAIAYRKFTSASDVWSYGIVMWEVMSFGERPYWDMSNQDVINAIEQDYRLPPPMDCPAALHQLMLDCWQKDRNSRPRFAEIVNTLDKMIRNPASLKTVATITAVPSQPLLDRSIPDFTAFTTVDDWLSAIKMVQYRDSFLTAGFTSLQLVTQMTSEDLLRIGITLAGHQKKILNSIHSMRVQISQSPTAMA

[5] = molecular target: FGFR1 (UniProt P11362); test: as above
[6] = tested on: c-Src; test: as above
[7] = molecular target: Fyn (UniProt P06241); test: as above
Fyn, sequence (P06241 whole entry, looked up): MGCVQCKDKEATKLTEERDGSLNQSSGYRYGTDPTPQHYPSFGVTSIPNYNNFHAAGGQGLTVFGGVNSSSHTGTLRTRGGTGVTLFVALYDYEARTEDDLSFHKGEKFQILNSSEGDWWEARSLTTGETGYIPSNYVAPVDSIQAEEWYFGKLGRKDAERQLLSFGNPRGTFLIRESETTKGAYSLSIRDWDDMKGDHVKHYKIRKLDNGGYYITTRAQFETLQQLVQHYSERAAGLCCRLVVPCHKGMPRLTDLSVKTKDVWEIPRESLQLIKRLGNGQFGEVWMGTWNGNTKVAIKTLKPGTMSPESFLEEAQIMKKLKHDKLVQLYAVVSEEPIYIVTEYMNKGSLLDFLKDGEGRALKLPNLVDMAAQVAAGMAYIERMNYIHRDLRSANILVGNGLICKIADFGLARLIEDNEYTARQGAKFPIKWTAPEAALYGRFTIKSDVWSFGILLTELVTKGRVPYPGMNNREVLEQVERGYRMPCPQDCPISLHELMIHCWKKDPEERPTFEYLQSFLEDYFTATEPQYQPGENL

[8] = molecular target: Fes (UniProt P07332); test: as above
[9] = molecular target: FGFR3 (UniProt P22607); test: as above
FGFR3, sequence (P22607 whole entry, looked up): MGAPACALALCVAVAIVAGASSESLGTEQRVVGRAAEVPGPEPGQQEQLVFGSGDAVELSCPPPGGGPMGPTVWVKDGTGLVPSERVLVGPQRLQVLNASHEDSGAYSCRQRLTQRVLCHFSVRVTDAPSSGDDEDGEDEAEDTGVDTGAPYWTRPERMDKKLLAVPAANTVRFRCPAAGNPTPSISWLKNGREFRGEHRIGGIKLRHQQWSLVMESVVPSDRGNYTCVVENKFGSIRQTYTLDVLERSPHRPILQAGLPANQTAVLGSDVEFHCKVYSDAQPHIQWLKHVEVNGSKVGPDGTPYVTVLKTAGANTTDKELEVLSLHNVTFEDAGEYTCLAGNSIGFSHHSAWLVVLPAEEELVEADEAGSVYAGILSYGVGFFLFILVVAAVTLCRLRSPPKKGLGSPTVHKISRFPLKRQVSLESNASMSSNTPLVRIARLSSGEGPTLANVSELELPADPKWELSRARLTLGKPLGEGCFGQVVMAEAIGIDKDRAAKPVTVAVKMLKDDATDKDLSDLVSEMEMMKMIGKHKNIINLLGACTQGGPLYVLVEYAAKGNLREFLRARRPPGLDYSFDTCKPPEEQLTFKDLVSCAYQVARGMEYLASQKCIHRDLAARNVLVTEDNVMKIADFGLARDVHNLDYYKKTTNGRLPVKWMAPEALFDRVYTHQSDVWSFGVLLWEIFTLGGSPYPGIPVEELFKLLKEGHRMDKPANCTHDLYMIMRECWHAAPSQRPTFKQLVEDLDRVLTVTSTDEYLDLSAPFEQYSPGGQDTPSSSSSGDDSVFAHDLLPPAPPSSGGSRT

[10] = molecular target: Jak2 (UniProt O60674); test: as above
Jak2, sequence (O60674 whole entry, looked up): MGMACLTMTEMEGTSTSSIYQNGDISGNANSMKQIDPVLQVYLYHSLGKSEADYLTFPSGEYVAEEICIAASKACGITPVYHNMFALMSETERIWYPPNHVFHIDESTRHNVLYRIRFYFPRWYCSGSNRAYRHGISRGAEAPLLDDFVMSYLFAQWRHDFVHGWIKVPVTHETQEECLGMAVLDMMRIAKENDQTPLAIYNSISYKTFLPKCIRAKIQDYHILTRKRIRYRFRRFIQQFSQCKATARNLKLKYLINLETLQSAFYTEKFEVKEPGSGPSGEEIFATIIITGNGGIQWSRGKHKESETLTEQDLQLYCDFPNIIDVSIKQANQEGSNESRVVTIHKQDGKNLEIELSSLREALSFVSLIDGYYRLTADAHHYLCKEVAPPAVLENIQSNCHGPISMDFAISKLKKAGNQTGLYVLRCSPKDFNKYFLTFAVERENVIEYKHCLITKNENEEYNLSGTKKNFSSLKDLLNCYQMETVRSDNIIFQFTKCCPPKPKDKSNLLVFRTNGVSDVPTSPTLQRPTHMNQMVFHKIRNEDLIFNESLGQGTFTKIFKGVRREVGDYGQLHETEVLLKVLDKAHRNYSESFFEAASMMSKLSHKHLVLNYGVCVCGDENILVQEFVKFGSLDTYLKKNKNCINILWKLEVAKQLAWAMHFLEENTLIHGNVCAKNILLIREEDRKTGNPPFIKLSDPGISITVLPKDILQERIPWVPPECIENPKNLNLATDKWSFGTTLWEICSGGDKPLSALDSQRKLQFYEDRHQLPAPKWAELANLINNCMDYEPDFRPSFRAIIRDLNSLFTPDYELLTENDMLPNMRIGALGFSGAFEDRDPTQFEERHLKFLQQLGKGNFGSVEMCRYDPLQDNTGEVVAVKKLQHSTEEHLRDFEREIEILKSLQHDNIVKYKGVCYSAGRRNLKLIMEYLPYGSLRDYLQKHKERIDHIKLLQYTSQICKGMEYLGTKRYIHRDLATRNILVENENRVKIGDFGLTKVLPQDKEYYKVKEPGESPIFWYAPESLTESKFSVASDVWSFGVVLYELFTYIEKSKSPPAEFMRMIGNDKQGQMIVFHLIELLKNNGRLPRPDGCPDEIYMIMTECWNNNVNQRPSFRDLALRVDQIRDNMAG

[11] = molecular target: MERTK (UniProt Q12866); test: as above
MERTK, sequence (Q12866 whole entry, looked up): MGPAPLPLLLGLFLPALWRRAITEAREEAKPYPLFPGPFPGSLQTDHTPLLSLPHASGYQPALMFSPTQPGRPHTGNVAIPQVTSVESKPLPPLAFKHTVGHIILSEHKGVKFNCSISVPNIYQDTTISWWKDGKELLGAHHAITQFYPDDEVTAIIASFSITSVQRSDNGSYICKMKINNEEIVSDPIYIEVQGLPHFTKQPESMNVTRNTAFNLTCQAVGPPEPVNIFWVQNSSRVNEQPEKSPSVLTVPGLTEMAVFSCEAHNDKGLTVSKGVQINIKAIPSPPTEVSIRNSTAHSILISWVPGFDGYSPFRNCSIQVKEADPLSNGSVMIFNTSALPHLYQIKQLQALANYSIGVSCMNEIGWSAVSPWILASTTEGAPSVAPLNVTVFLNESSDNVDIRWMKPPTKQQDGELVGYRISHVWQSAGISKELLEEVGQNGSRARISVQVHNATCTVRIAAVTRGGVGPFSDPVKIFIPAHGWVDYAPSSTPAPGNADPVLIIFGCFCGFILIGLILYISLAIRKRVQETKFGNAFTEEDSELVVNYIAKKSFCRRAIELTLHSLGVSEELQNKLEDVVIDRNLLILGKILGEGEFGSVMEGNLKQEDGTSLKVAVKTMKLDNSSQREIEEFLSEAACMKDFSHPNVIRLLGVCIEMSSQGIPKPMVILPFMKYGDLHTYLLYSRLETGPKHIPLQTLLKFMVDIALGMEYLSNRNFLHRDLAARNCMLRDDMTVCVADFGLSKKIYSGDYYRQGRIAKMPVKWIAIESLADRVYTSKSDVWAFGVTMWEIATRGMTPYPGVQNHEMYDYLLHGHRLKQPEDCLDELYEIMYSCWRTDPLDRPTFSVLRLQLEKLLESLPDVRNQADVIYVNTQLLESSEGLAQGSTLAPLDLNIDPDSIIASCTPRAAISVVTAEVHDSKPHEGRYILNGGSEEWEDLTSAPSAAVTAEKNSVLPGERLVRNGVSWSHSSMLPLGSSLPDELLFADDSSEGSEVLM

[12] = tested on: c-Abl (mouse); test: as above
[13] = molecular target: EPHB2 (UniProt P29323); test: as above
[14] = molecular target: c-Src SH2; test: SH2 binding enrichment of the phosphorylated peptide, bacterial display (enrichment ratio); higher = better substrate or ligand; peptides without Tyr show the background
[15] = molecular target: SHP2-C SH2; test: as above
[16] = molecular target: Grb2 SH2 (UniProt P62993); test: as above
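Wherever SH2 binding enrichment of the phosphorylated peptide, bacterial display is given: peptide library displayed on the E. coli surface as eCPX fusions, selected cells deep-sequenced, score is each peptide's frequency after selection divided by its frequency in the input.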
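Wherever phosphorylation enrichment, bacterial display is given: 11-residue human phosphosite peptides and single-mutation variants displayed on the E. coli surface, counted by deep sequencing, each peptide's frequency after selection divided by its frequency in the unselected input library; frequency after pTyr selection over input frequency; kinase dosed for 20-30% of maximal phosphorylation in three min.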

Hck, sequence (P08631 whole entry, looked up): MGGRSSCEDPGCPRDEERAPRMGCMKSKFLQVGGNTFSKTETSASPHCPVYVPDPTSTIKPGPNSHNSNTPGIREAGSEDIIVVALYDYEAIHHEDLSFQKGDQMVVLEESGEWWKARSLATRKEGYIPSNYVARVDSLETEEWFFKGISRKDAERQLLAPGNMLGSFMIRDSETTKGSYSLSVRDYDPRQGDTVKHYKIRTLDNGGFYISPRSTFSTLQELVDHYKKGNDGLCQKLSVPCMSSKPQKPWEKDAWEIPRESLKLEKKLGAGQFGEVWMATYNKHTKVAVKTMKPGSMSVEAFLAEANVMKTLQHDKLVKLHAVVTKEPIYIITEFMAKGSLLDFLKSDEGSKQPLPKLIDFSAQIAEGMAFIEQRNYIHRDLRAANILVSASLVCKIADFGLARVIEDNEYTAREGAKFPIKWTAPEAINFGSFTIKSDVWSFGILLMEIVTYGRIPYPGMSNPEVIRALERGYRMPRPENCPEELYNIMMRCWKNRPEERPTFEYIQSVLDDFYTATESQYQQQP

| Sequence | phosphorylation enrichment [1] | phosphorylation enrichment [2] | phosphorylation enrichment [3] | phosphorylation enrichment [4] | phosphorylation enrichment [5] | phosphorylation enrichment [6] | phosphorylation enrichment [7] | phosphorylation enrichment [8] | phosphorylation enrichment [9] | phosphorylation enrichment [10] | phosphorylation enrichment [11] | phosphorylation enrichment [12] | phosphorylation enrichment [13] | SH2 binding enrichment [14] | SH2 binding enrichment [15] | SH2 binding enrichment [16] |
| --- | --- | --- | --- | --- | --- | --- | --- | --- | --- | --- | --- | --- | --- | --- | --- | --- |
| GRTNIYNNKKD [SLC26A3_Y520_K521N] | 0.326 | 0.418 | 0.365 | 0.311 | 0.324 | 0.435 | 0.347 | 0.632 | 0.349 | 0.691 | 0.301 | 0.433 | 0.339 | 0.634 | 0.754 | 1.04 |
| CTTFHYNYMCN [TP53_Y234_I232F] | 0.659 | 1.03 | 0.514 | 0.809 | 0.696 | 0.507 | 0.547 | 1.05 | 0.713 | 0.842 | 0.475 | 0.955 | 0.629 | 4.4 | 1.82 | 1.17 |
| KRFRIYHLAIS [BRCA2_Y3009_T3013I_YF] | 0.48 | 0.899 | 0.494 | 0.612 | 0.644 | 0.448 | 0.55 | 0.942 | 0.625 | 0.86 | 0.484 | 1.38 | 0.524 | 1.56 | 1.43 | 1.81 |
| RLLRGYNQSAF [HLA-C_Y137_D138N_YF] | 0.268 | 0.54 | 0.402 | 0.503 | 0.665 | 0.424 | 0.458 | 0.804 | 0.547 | 0.476 | 0.56 | 0.316 | 0.417 | 0.976 | 0.705 | 1.14 |
| CTTIRYNFMCN [TP53_Y234_H233R_YF] | 0.501 | 0.948 | 0.435 | 0.552 | 0.434 | 0.372 | 0.521 | 0.983 | 0.684 | 0.833 | 0.407 | 0.618 | 0.613 | 1.65 | 1.82 | 1.87 |
| GVRYIYTIDGS [DCX_Y105] | 0.415 | 1.09 | 0.783 | 0.6 | 0.487 | 1.86 | 1.76 | 1.31 | 0.743 | 0.937 | 0.405 | 0.687 | 0.552 | 0.67 | 17.4 | 0.943 |
| LVKDPYVMFPQ [PLEKHG2_Y489_P484L] | 1.12 | 1.45 | 2.48 | 0.91 | 7.45 | 3.86 | 4.32 | 1.93 | 3.42 | 1.79 | 0.997 | 0.943 | 0.608 | 1.98 | 0.459 | 0.778 |
| ADDSYYTVRSA [ZAP70_Y493_A495V] | 0.425 | 1.56 | 2.89 | 0.709 | 7.54 | 2.45 | 2.01 | 0.941 | 5.2 | 1.47 | 0.784 | 0.611 | 0.637 | 0.874 | 0.753 | 0.733 |
| DTNIAYCLHPR [POMT1_Y581_W582C] | 0.505 | 0.831 | 0.431 | 0.549 | 0.471 | 0.568 | 0.541 | 1.06 | 0.691 | 0.754 | 0.695 | 0.753 | 0.532 | 0.609 | 0.744 | 0.712 |
| DRPASYLDKVR [KRT17_Y98_L95P] | 0.405 | 0.674 | 0.432 | 0.446 | 0.465 | 0.474 | 0.398 | 0.636 | 0.456 | 0.556 | 0.51 | 0.624 | 0.396 | 0.502 | 0.664 | 0.828 |
| GDEVEYMLVSF [GCLC_Y53] | 2.43 | 2.31 | 1.15 | 0.665 | 3.97 | 1.16 | 0.841 | 1.1 | 3.39 | 0.976 | 0.473 | 0.677 | 0.829 | 0.407 | 0.701 | 0.821 |
| GELQGYDIMEP [MSH2_Y863_S860L] | 0.471 | 1.23 | 0.508 | 0.554 | 0.445 | 0.436 | 0.412 | 1.13 | 0.666 | 1.13 | 0.419 | 0.658 | 0.522 | 4.99 | 0.534 | 0.851 |
| PSNTEYPGPHS [TP63_Y171_D170E] | 0.498 | 0.806 | 0.477 | 0.774 | 0.56 | 0.41 | 0.507 | 0.832 | 0.497 | 0.568 | 0.383 | 0.696 | 0.671 | 0.373 | 0.362 | 1.48 |
| IITVHYVLEES [RYR2_Y4559_A4556T] | 0.579 | 1.17 | 0.517 | 0.777 | 0.594 | 0.523 | 0.53 | 1.22 | 0.831 | 1.02 | 0.498 | 0.794 | 0.577 | 1.37 | 1.56 | 1.45 |
| ASPALYRLDLD [TRIL_Y352] | 0.484 | 0.798 | 0.617 | 0.818 | 0.552 | 1.84 | 0.922 | 1.16 | 0.688 | 0.873 | 0.484 | 0.763 | 0.596 | 0.457 | 0.557 | 0.753 |
